PMC5849716

Molecular target: 14-3-3τ (UniProt P27348)
Assay: split luciferase kinase inhibitor screen
Settings: reference: DMSO-treated; sites S127

Row | Substance | fold change | other: suppressed fold change
1 | YAP (YAP1) 120-134 (from UniProt P46937) API-2 (PKB), 10 μM 4 h | 10.6 | –
2 | YAP (YAP1) 120-134 (from UniProt P46937) BIO (GSKa/b), 10 μM 4 h | 14.4 | –
3 | YAP (YAP1) 120-134 (from UniProt P46937) CGK 733 (ATM/ATR), 10 μM 4 h | – | 1.85
4 | YAP (YAP1) 120-134 (from UniProt P46937) ER 27319 (SYK), 10 μM 4 h | – | 3.71
5 | YAP (YAP1) 120-134 (from UniProt P46937) GSK650394 (SGK), 10 μM 4 h | – | 1.73
6 | YAP (YAP1) 120-134 (from UniProt P46937) Genistein (EGFR), 10 μM 4 h | 6.12 | –
7 | YAP (YAP1) 120-134 (from UniProt P46937) PD 98059 (MEK), 10 μM 4 h | 16.9 | –
8 | YAP (YAP1) 120-134 (from UniProt P46937) PD 407824 (CHK1), 10 μM 4 h | – | 1.73
9 | YAP (YAP1) 120-134 (from UniProt P46937) Ro 08-2750 (TrkA), 10 μM 4 h | – | 6.51
10 | YAP (YAP1) 120-134 (from UniProt P46937) Ro 31-8220 (General), 10 μM 4 h | – | 5.21
11 | YAP (YAP1) 120-134 (from UniProt P46937) Ryuvidine (CDK4), 10 μM 4 h | 5.88 | –
12 | YAP (YAP1) 120-134 (from UniProt P46937) SU 4312 (VEGFR1/2), 10 μM 4 h | 27.9 | –
